Laboratory results as given in patent US20160136234A1.

How the values were obtained:
Test in all cases: cell-based or functional assay
[1] = target: Arg (h) (human) (UniProt P42684)
[2] = target: T1, IKKα (h) (human) (UniProt O15111)
T1 sequence (looked up): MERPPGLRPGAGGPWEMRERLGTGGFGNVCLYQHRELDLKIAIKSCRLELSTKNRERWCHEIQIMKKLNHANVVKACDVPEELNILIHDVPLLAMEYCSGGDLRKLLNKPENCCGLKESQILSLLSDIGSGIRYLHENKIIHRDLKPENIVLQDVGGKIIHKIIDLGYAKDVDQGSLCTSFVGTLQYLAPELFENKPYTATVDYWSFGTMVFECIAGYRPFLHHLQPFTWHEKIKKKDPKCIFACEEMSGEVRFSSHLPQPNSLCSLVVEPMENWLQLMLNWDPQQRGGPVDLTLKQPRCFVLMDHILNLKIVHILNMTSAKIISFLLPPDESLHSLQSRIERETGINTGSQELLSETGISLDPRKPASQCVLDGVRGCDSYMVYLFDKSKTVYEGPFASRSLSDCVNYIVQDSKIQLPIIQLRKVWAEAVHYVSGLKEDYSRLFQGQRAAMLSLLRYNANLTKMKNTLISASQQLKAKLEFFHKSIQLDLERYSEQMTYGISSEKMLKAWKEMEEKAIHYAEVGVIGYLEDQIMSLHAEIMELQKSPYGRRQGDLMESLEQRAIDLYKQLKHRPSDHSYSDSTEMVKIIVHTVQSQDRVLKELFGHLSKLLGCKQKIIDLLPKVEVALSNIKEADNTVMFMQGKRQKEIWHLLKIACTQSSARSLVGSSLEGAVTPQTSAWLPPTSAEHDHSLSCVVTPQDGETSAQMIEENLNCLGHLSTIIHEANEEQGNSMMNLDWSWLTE

[3] = target: Pyk2 (h) (human) (UniProt Q14289)
[4] = target: p70S6K (h) (human) (UniProt P23443)
[5] = target: T2, ARK5 (h) (human) (UniProt O60285)
T2 sequence (looked up): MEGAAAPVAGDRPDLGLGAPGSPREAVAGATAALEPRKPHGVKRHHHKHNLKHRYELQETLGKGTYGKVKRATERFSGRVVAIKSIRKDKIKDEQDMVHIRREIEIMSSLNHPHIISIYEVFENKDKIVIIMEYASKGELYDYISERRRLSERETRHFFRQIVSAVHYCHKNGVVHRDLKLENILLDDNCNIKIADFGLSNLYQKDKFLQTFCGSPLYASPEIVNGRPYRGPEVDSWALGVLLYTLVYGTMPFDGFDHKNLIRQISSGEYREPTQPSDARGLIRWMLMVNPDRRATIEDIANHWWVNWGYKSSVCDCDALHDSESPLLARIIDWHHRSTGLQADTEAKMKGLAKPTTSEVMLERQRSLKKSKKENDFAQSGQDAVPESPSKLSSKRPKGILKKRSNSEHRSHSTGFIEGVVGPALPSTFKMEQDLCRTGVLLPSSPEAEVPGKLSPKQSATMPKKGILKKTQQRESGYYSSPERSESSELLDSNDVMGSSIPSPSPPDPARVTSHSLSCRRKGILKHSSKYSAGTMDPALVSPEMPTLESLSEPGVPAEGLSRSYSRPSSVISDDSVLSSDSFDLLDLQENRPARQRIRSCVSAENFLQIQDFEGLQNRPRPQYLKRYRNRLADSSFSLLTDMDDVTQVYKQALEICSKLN

[6] = target: RIPK2 (h) (human) (UniProt O43353)
Chain of RIPK2 (h) (human) (O43353 1-299 limits assumed): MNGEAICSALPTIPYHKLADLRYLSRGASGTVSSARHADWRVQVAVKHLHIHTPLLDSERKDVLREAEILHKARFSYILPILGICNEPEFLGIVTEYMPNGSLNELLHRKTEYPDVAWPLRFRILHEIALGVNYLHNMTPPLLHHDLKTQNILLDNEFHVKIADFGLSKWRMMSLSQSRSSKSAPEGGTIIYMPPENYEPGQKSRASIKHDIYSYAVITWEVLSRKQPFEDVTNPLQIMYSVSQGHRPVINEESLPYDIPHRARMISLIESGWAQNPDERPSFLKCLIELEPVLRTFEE

[7] = target: T3, Itk (h) (human) (UniProt Q08881)
T3 sequence (looked up): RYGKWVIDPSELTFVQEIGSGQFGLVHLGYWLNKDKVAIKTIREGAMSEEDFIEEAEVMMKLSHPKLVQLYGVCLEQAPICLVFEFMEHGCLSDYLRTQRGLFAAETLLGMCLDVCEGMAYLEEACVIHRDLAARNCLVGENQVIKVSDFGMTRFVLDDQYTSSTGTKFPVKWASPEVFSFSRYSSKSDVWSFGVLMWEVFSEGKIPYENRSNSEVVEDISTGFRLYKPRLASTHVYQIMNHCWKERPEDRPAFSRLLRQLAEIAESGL

[8] = target: Rsk3 (h) (human) (UniProt Q15349)
Chain of Rsk3 (h) (human) (Q15349 whole entry): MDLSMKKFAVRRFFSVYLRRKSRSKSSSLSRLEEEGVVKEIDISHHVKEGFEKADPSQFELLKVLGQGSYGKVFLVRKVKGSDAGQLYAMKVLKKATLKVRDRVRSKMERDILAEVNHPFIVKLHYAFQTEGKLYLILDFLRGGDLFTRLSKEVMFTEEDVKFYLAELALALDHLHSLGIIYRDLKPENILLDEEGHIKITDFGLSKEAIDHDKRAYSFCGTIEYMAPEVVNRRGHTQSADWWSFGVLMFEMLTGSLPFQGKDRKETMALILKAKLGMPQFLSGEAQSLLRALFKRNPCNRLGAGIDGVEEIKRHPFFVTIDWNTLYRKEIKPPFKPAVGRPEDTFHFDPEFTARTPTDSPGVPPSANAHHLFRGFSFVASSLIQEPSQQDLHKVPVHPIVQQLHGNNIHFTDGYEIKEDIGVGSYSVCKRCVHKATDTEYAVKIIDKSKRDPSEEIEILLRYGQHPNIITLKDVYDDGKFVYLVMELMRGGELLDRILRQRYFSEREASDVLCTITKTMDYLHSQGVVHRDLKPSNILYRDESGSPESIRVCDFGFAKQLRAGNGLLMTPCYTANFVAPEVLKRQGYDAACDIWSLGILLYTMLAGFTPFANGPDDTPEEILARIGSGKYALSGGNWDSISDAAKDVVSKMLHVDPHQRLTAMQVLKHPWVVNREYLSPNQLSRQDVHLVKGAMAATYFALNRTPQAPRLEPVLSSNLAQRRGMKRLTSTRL

[9] = target: ZIPK (h) (human) (UniProt O43293)
[10] = target: mTOR (h) (human) (UniProt P42345)
Chain of mTOR (h) (human) (P42345 1362-2549 limits assumed): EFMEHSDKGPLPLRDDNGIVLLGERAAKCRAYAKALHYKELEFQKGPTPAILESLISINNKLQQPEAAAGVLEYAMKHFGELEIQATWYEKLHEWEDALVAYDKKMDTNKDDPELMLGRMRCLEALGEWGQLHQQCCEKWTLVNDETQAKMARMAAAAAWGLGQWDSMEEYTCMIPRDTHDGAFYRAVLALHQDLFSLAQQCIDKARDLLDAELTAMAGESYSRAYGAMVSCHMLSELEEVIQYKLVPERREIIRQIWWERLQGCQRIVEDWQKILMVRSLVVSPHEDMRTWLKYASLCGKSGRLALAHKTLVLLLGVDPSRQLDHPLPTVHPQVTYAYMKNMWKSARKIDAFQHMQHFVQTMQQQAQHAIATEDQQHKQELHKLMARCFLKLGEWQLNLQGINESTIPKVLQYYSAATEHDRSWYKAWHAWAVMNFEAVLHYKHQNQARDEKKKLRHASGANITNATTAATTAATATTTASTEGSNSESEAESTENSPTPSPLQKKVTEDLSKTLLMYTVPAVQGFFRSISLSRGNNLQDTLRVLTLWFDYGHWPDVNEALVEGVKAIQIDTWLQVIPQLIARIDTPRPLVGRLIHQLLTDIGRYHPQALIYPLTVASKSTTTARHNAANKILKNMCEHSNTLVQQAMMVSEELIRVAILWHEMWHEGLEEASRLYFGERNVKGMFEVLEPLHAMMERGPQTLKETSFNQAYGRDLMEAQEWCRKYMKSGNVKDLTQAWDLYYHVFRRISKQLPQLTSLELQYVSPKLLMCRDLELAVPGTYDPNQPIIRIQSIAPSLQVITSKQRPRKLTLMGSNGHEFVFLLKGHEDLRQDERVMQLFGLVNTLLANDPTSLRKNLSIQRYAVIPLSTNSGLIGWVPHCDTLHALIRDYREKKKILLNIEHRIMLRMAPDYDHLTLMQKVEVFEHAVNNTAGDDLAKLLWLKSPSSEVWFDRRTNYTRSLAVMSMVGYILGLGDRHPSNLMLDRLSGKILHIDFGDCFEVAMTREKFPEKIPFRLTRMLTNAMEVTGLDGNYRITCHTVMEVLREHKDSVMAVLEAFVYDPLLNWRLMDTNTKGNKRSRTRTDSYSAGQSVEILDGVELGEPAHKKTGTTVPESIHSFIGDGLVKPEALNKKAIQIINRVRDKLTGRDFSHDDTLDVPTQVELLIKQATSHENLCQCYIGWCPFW

[11] = target: Abl(Y253F) (h) (human) (UniProt P00519)
Chain of Abl(Y253F) (h) (human) (P00519 27-1130 Y253F limits assumed): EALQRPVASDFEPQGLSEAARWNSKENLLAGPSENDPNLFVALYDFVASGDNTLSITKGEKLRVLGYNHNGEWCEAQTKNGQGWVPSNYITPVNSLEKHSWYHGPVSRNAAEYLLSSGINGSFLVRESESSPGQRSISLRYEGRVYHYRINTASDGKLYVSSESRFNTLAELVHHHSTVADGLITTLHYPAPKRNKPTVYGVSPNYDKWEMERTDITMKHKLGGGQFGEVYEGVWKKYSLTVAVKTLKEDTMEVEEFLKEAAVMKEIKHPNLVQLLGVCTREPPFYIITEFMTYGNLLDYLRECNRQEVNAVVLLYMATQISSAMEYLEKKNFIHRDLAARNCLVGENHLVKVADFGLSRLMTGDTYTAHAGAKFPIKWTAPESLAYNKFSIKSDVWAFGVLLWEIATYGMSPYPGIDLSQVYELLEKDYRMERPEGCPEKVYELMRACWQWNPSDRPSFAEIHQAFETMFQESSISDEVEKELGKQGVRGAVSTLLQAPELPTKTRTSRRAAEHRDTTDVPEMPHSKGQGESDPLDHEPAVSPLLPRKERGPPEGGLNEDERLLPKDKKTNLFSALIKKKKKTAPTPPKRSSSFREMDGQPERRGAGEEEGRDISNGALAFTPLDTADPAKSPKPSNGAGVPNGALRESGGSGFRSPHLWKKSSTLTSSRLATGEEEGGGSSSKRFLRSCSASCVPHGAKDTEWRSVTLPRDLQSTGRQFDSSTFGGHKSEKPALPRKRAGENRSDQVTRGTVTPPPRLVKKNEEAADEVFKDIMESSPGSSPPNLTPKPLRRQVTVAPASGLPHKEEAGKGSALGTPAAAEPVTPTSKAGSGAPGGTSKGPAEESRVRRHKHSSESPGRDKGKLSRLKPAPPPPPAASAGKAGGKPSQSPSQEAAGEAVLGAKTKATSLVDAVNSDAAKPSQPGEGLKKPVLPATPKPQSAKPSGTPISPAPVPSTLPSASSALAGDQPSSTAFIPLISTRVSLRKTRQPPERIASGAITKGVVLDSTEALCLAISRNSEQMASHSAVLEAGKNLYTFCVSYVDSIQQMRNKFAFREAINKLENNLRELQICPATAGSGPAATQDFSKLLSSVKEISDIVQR

[12] = target: MELK (h) (human) (UniProt Q14680)
[13] = target: STK33 (h) (human) (UniProt Q9BYT3)
[14] = target: FGFR4 (h) (human) (UniProt P22455)
Chain of FGFR4 (h) (human) (P22455 460-802 limits assumed): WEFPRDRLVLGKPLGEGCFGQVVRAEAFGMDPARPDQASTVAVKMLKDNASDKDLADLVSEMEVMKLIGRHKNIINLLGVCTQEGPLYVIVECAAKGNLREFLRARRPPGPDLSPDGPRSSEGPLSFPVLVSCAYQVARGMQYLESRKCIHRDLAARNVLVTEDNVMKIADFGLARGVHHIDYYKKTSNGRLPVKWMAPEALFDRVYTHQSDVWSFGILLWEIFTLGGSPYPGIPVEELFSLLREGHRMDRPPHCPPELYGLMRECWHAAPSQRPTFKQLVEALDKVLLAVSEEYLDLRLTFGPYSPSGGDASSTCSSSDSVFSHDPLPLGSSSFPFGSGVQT

[15] = target: Ron (h) (human) (UniProt Q04912)
Chain of Ron (h) (human) (Q04912 983-1400 limits assumed): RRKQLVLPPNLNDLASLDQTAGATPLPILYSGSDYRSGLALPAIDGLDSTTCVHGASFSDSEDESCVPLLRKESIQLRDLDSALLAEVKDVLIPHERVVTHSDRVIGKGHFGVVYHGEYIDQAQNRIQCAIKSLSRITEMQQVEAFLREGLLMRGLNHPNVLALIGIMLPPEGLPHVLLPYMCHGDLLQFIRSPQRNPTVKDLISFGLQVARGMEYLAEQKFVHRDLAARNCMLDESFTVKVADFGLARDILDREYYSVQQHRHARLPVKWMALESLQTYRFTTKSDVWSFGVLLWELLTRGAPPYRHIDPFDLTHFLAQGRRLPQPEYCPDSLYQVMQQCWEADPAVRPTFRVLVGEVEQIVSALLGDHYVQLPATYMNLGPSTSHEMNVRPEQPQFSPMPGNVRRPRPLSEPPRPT

[16] = target: T4, EphA3 (h) (human) (UniProt P29320)
T4 sequence (looked up): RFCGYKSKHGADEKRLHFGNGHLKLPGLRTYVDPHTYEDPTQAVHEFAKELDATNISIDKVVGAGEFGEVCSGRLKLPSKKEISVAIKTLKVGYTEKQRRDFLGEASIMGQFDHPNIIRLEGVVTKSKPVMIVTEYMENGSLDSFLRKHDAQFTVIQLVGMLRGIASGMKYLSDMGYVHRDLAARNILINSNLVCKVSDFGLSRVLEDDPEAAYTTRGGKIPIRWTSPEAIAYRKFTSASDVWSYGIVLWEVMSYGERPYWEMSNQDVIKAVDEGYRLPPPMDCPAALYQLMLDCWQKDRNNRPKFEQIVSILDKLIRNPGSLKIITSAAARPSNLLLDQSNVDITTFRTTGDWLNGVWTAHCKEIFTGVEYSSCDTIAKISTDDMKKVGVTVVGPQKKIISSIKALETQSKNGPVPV

[17] = target: CLK3 (h) (human) (UniProt P49761)

- % activity at 100 µM [1]: 72%
- % activity at 100 µM [2]: 93%
- % activity at 100 µM [3]: 47%
- % activity at 100 µM [4]: 35%
- % activity at 100 µM [5]: 78%
- % activity at 100 µM [6]: 97%
- % activity at 100 µM [7]: 77%
- % activity at 100 µM [8]: 76%
- % activity at 100 µM [9]: 28%
- % activity at 100 µM [10]: 91%
- % activity at 100 µM [11]: 86%
- % activity at 100 µM [12]: 16%
- % activity at 100 µM [13]: 45%
- % activity at 100 µM [14]: 28%
- % activity at 100 µM [15]: 93%
- % activity at 100 µM [16]: 6%
- % activity at 100 µM [17]: 61%
Substance: MMI-0300 (peptide)
